{
  "source": "paper PMC6765133",
  "about": "(Nucleic Acids Research, 2019)",
  "proteins": {"B1": {"name": "Deinococcus geothermalis DdrO (residues 12-140) (natural protein)", "chain": "MGSSHHHHHHSSGLVPRGSHMKLHERLRELRSERGLRLKDVAETAGISVPYLSDLERGRTNPSLETLQTLAGAYSITVHDLLEGVEFYGDSTEGALPKGLADLVADPLLGSQITPDWVRTLSRIELRGKRPRDKQDWYEIYLHLKRILG"}, "B2": {"name": "DG-DdrO Y129A (natural protein)", "chain": "B1 chain with Y138A"}, "B3": {"name": "DG-DdrO R22A (natural protein)", "chain": "B1 chain with R31A"}, "B4": {"name": "DG-DdrO Y132A (natural protein)", "chain": "B1 chain with Y141A"}},
  "note": "Changes are numbered by the printed parent chain. Names and notes keep the numbering of the source.",
  "data": [
    {"biological_target": "the molecule itself", "experiment": "SEC", "values": [
      {"protein": "B1", "stoichiometry N": 2},
      {"protein": "B2", "stoichiometry N": 2},
      {"protein": "B3", "stoichiometry N": 2},
      {"protein": "B4", "stoichiometry N": 2}
    ]}
  ]
}
